In US20170119861:

Legend:
[1] = molecular target: protective protein/cathepsin A (PPCA) (UniProt P10619)
Aβ42 fibrils = Aβ42 fibrils (UniProt P05067)
synthetic Aβ42 peptide = synthetic Aβ42 peptide (UniProt P05067)
Aβ42 oligomers = Aβ42 oligomers (UniProt P05067)
Sequence of Aβ42 oligomers (P05067 whole entry, looked up): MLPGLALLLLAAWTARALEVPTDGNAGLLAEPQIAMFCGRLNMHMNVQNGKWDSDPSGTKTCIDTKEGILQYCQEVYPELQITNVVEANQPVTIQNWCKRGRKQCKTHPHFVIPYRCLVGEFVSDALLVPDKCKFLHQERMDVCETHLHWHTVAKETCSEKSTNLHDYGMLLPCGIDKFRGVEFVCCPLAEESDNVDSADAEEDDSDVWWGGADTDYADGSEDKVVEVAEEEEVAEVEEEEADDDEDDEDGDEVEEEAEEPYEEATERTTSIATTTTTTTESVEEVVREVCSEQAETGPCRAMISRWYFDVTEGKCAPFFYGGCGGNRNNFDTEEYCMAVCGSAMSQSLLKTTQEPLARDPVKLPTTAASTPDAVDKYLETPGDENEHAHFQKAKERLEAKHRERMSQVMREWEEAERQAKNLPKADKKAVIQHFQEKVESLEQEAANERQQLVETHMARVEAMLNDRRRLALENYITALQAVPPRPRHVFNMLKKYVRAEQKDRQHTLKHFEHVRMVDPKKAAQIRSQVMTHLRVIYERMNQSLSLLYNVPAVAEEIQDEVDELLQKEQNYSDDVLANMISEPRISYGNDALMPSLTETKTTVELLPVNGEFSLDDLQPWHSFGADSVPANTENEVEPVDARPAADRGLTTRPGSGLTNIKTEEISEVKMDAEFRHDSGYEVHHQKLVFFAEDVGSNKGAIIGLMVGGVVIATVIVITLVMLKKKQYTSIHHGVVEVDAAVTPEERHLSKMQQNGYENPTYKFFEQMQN

Sequence of cathepsin D (chain, as listed by the source): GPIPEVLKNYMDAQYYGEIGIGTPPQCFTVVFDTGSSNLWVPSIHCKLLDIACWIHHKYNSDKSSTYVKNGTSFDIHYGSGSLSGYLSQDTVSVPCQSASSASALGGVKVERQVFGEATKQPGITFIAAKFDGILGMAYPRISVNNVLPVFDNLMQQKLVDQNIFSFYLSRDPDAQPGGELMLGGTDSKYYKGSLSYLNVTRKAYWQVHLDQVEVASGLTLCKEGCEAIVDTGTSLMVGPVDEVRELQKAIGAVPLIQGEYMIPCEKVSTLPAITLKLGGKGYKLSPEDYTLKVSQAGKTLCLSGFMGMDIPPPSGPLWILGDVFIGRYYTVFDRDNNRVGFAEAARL
Sequence of Aβ42 fibrils (P05067 whole entry, looked up): as the sequence (P05067 whole entry, looked up) above
Sequence of synthetic Aβ42 peptide (P05067 whole entry, looked up, tested part not stated): as the sequence (P05067 whole entry, looked up) above
Sequence of protective protein/cathepsin A (PPCA) (P10619 29-480): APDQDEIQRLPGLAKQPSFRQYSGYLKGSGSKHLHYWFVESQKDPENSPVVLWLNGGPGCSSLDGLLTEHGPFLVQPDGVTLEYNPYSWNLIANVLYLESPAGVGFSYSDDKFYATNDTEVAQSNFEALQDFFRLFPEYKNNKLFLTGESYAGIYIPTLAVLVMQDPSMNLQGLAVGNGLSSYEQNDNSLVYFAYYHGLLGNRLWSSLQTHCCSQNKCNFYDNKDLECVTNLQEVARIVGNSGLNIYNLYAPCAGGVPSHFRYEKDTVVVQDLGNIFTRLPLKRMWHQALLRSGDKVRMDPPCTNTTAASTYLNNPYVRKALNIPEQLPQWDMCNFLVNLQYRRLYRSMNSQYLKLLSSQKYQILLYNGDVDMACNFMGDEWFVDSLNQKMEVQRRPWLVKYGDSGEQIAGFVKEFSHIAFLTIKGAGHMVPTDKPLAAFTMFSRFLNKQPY
Sequence of cathepsin L (chain, as listed by the source): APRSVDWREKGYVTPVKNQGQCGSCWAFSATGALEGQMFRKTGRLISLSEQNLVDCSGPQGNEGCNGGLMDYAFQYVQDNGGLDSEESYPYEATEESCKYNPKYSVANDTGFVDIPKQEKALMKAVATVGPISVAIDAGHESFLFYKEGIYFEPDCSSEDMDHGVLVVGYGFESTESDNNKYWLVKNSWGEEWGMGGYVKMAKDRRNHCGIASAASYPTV

Q: With cathepsin L as the substance, how does the “activation of cathepsin A (enzyme activity)” value [1] read?
A: Its value is “Activation of 90 ng cathepsin A by cathepsin L”.

Q: For cathepsin D, which “western blot (E610) of day 9 Aβ42 fibrils after overnight treatment with 90 ng enzyme” value (Aβ42 fibrils) is on record?
A: The value was “did not result in visible reduction/degradation of fibril smear or oligomer bands”.

Q: What about the “THT assay and western blot of Aβ42 treated with cathepsin D” value (synthetic Aβ42 peptide) of the same substance?
A: Its value is “strong prevention of aggregation of Aβ42 species, measured by THT; complete elimination Aβ42 monomers”.

Q: What about the “western blot (A11) of day 9 Aβ42 oligomers after overnight treatment with 90 ng enzyme” value (Aβ42 oligomers) of the same substance?
A: The value was “did not reveal changes in intensity or size of oligomer band (lines 5, 6)”.

Q: What does the source list for cathepsin B?
A: western blot (E610) of day 9 Aβ42 fibrils after overnight treatment with 90 ng enzyme (Aβ42 fibrils): resulted in weak reduction/degradation of the fibril smear (line 5 compared to line 2); western blot of Aβ42 treated with cathepsin B (synthetic Aβ42 peptide): cathepsin B prevents aggregation of low molecular weight Aβ42 species and degrades Aβ42 monomers in a time dependent manner; western blot (A11) of day 9 Aβ42 oligomers after overnight treatment with 90 ng enzyme (Aβ42 oligomers): did not reveal changes in intensity or size of oligomer band (lines 5, 6)
